Results as given in US20250066745A1, “MUTANTS AND USE THEREOF” (BGI SHENZHEN, priority 2021, published 2025).

Experiments:
Assay type in all cases: biochemical
Set-up in all cases: key to Activity of mutant relative to wild-type Gaussia luciferase without the signal peptide: ratio of mutant luminescence intensity to wild-type Gaussia luciferase
[1] = Luminescence activity assay of purified Gaussia luciferase mutants on coelenterazine; conditions: Substrate CTZ (Table 16)
How it was run: (§1)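 Readout: luminescence intensity, as ratio to signal-peptide-free wild-type enzyme. Enzyme 1 μg/mL, substrate 100 μM stock, 10 μL + 90 μL; buffer 50 mM Tris-HCl pH 8.0, 100 mM NaCl, 0.1% Tween-20.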

[2] = Luminescence activity assay of purified Gaussia luciferase mutants on fluoro-coelenterazine; conditions: Substrate f-CTZ (Table 16)
How it was run: as §1

[3] = Luminescence activity assay of purified Gaussia luciferase mutants on coelenterazine derivative ZS2; conditions: Substrate ZS2 (Table 16)
How it was run: as §1

Row | Molecule | Activity of mutant relative to wild-type Gaussia luciferase without the signal peptide [1] | Activity of mutant relative to wild-type Gaussia luciferase without the signal peptide [2] | Activity of mutant relative to wild-type Gaussia luciferase without the signal peptide [3]
1 | F26C N27D A30D A32V S33R A36T: Gaussia luciferase mutant (protein, SIGNAL (1)..(17), Gaussia luciferase mutant) MGVKVLFALICIAVAEAKPTENNEDCDIVDVVRNFTTTDLDADRGKLPGKKLPLEVLKEMEANARKAGCTRGCLICLSHIKCTPKMKKFIPGRCHTYEGDKESAQGGIGEAIVDIPEIPGFKDLEPMEQFIAQVDLCVDCTTGCLKGLANVQCSDLLKKWLPQRCATFASKIQGQVDKIKGAGGD | 0.126 | 0.130 | 0.166
2 | F26C N27D V29L A32V A36I T37A L40I: Gaussia luciferase mutant (protein, SIGNAL (1)..(17), Gaussia luciferase mutant) MGVKVLFALICIAVAEAKPTENNEDCDILAVVSNFIATDIDADRGKLPGKKLPLEVLKEMEANARKAGCTRGCLICLSHIKCTPKMKKFIPGRCHTYEGDKESAQGGIGEAIVDIPEIPGFKDLEPMEQFIAQVDLCVDCTTGCLKGLANVQCSDLLKKWLPQRCATFASKIQGQVDKIKGAGGD | 0.203 | 0.141 | 0.166
3 | F26I N27D V29A A30D V31I S33K A36N T37K L40P: Gaussia luciferase mutant (protein, SIGNAL (1)..(17), Gaussia luciferase mutant) MGVKVLFALICIAVAEAKPTENNEDIDIADIAKNFNKTDPDADRGKLPGKKLPLEVLKEMEANARKAGCTRGCLICLSHIKCTPKMKKFIPGRCHTYEGDKESAQGGIGEAIVDIPEIPGFKDLEPMEQFIAQVDLCVDCTTGCLKGLANVQCSDLLKKWLPQRCATFASKIQGQVDKIKGAGGD | 0.016 | 0.080 | 0.026
4 | F26G N27D V29L A30V V31I A32G S33D A36W T37S: Gaussia luciferase mutant (protein, SIGNAL (1)..(17), Gaussia luciferase mutant) MGVKVLFALICIAVAEAKPTENNEDGDILVIGDNFWSTDLDADRGKLPGKKLPLEVLKEMEANARKAGCTRGCLICLSHIKCTPKMKKFIPGRCHTYEGDKESAQGGIGEAIVDIPEIPGFKDLEPMEQFIAQVDLCVDCTTGCLKGLANVQCSDLLKKWLPQRCATFASKIQGQVDKIKGAGGD | 0.038 | 0.040 | 0.027
5 | F26G N27Y V29C A30V V31L S33G A36R T37A L40A: Gaussia luciferase mutant (protein, SIGNAL (1)..(17), Gaussia luciferase mutant) MGVKVLFALICIAVAEAKPTENNEDGYICVLAGNFRATDADADRGKLPGKKLPLEVLKEMEANARKAGCTRGCLICLSHIKCTPKMKKFIPGRCHTYEGDKESAQGGIGEAIVDIPEIPGFKDLEPMEQFIAQVDLCVDCTTGCLKGLANVQCSDLLKKWLPQRCATFASKIQGQVDKIKGAGGD | 0.088 | 0.104 | 0.080
6 | F26C N27D A30V V31L A32G S33I A36V T37M L40G: Gaussia luciferase mutant (protein, SIGNAL (1)..(17), Gaussia luciferase mutant) MGVKVLFALICIAVAEAKPTENNEDCDIVVLGINFVMTDGDADRGKLPGKKLPLEVLKEMEANARKAGCTRGCLICLSHIKCTPKMKKFIPGRCHTYEGDKESAQGGIGEAIVDIPEIPGFKDLEPMEQFIAQVDLCVDCTTGCLKGLANVQCSDLLKKWLPQRCATFASKIQGQVDKIKGAGGD | 0.054 | 0.065 | 0.086
7 | F26G N27Y A30G V31L A32G S33L A36Y T37V L40E: Gaussia luciferase mutant (protein, SIGNAL (1)..(17), Gaussia luciferase mutant) MGVKVLFALICIAVAEAKPTENNEDGYIVGLGLNFYVTDEDADRGKLPGKKLPLEVLKEMEANARKAGCTRGCLICLSHIKCTPKMKKFIPGRCHTYEGDKESAQGGIGEAIVDIPEIPGFKDLEPMEQFIAQVDLCVDCTTGCLKGLANVQCSDLLKKWLPQRCATFASKIQGQVDKIKGAGGD | 0.031 | 0.025 | 0.027

Further lines, results first:

Row | Activity of mutant relative to wild-type Gaussia luciferase without the signal peptide [1] | Activity of mutant relative to wild-type Gaussia luciferase without the signal peptide [2] | Activity of mutant relative to wild-type Gaussia luciferase without the signal peptide [3] | Molecule
8 | 4.609 | 1.020 | 3.139 | Q152R Q163S T167S S170D G174K Q175E K178N A182M: Gaussia luciferase mutant (protein, SIGNAL (1)..(17), Gaussia luciferase mutant) MGVKVLFALICIAVAEAKPTENNEDFNIVAVASNFATTDLDADRGKLPGKKLPLEVLKEMEANARKAGCTRGCLICLSHIKCTPKMKKFIPGRCHTYEGDKESAQGGIGEAIVDIPEIPGFKDLEPMEQFIAQVDLCVDCTTGCLKGLANVRCSDLLKKWLPSRCASFADKIQKEVDNIKGMGGD
9 | 0.170 | 0.135 | 0.138 | Q163T T167S S170V G174N K178N A182Y G183A: Gaussia luciferase mutant (protein, SIGNAL (1)..(17), Gaussia luciferase mutant) MGVKVLFALICIAVAEAKPTENNEDFNIVAVASNFATTDLDADRGKLPGKKLPLEVLKEMEANARKAGCTRGCLICLSHIKCTPKMKKFIPGRCHTYEGDKESAQGGIGEAIVDIPEIPGFKDLEPMEQFIAQVDLCVDCTTGCLKGLANVQCSDLLKKWLPTRCASFAVKIQNQVDNIKGYAGD
10 | 0.703 | 0.404 | 0.481 | Q152R T167G G174S Q175E K178N A182Y G183A: Gaussia luciferase mutant (protein, SIGNAL (1)..(17), Gaussia luciferase mutant) MGVKVLFALICIAVAEAKPTENNEDFNIVAVASNFATTDLDADRGKLPGKKLPLEVLKEMEANARKAGCTRGCLICLSHIKCTPKMKKFIPGRCHTYEGDKESAQGGIGEAIVDIPEIPGFKDLEPMEQFIAQVDLCVDCTTGCLKGLANVRCSDLLKKWLPQRCAGFASKIQSEVDNIKGYAGD
11 | 0.622 | 2.719 | 0.550 | E102K S103T A104G E110G V138D I172: Gaussia luciferase mutant (protein) MGVKVLFALICIAVAEAKPTENNEDFNIVAVASNFATTDLDADRGKLPGKKLPLEVLKEMEANARKAGCTRGCLICLSHIKCTPKMKKFIPGRCHTYEGDKKTGQGGIGGAIVDIPEIPGFKDLEPMEQFIAQVDLCDDCTTGCLKGLANVQCSDLLKKWLPQRCATFASKIQGQVDKIKGAGGD
12 | 1.165 | 1.701 | 1.337 | S103I A104G E110G L124M V138D: Gaussia luciferase mutant (protein, SIGNAL (1)..(17), Gaussia luciferase mutant) MGVKVLFALICIAVAEAKPTENNEDFNIVAVASNFATTDLDADRGKLPGKKLPLEVLKEMEANARKAGCTRGCLICLSHIKCTPKMKKFIPGRCHTYEGDKEIGQGGIGGAIVDIPEIPGFKDMEPMEQFIAQVDLCDDCTTGCLKGLANVQCSDLLKKWLPQRCATFASKIQGQVDKIKGAGGD
13 | 1.470 | 0.583 | 1.231 | F26I V29A A30D A32V S33K T37E L40A: Gaussia luciferase mutant (protein, SIGNAL (1)..(17), Gaussia luciferase mutant) MGVKVLFALICIAVAEAKPTENNEDINIADVVKNFAETDADADRGKLPGKKLPLEVLKEMEANARKAGCTRGCLICLSHIKCTPKMKKFIPGRCHTYEGDKESAQGGIGEAIVDIPEIPGFKDLEPMEQFIAQVDLCVDCTTGCLKGLANVQCSDLLKKWLPQRCATFASKIQGQVDKIKGAGGD
14 | 0.066 | 0.095 | 0.067 | F26L N27H V29C V31I S33V A36Q T37S L40G: Gaussia luciferase mutant (protein, SIGNAL (1)..(17), Gaussia luciferase mutant) MGVKVLFALICIAVAEAKPTENNEDLHICAIAVNFQSTDGDADRGKLPGKKLPLEVLKEMEANARKAGCTRGCLICLSHIKCTPKMKKFIPGRCHTYEGDKESAQGGIGEAIVDIPEIPGFKDLEPMEQFIAQVDLCVDCTTGCLKGLANVQCSDLLKKWLPQRCATFASKIQGQVDKIKGAGGD
